Results on six sequences are retold here after the supplement of paper PMC5998384.

Data set [1] relates to HeLa Kyoto. Kind of data set: solubility in G1/S (NP-40 vs SDS abundance) (log2 ratio); higher = more soluble. As to conditions: cell cycle stage: G1/S.
Data set [2] has as its system HeLa Kyoto. As to the kind of experiment: melting temperature (median over replicates), in situ; higher = more thermally stable.
Data set [3] has as its system HeLa Kyoto. Kind of data set: solubility change mitosis vs G1/S (difference of NP-40 vs SDS log2 ratios) (log2 ratio difference); higher = more soluble in mitosis.
The subject of data set [4] is HeLa Kyoto. Kind of data set: thermal stability score vs G1/S (z-score of summed log2 fold changes over temperatures); higher = more thermally stable than in G1/S.
[5] abbreviates: cell cycle stage: early G1 (4.5 h after nocodazole release).
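Wherever melting temperature (median over replicates), in situ is given: HeLa Kyoto cells synchronized by double thymidine or nocodazole block, proteins quantified by TMT10plex mass spectrometry, three independent biological replicates.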
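Wherever solubility change mitosis vs G1/S (difference of NP-40 vs SDS log2 ratios) is given: synchronized HeLa Kyoto cells (double thymidine block for G1/S, nocodazole release for mitosis), protein amounts in NP-40 versus SDS lysates quantified by mass spectrometry, three biological replicates.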
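Wherever solubility in G1/S (NP-40 vs SDS abundance) is given: HeLa Kyoto cells arrested at G1/S by double thymidine block, proteins quantified by TMT10plex mass spectrometry in mild NP-40 versus SDS extracts, three biological replicates.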
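Wherever thermal stability score vs G1/S (z-score of summed log2 fold changes over temperatures) is given: synchronized HeLa Kyoto cells, proteins quantified by TMT10plex mass spectrometry, three biological replicates, mitosis taken 0.5 h after nocodazole release, G1/S directly after double thymidine block.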

“MLDFAIFAVTFLLALVGAVLYLYPASRQAAGIPGITPTEEKDGNLPDIVNSGSLHEFLVNLHERYGPVVSFWFGRRLVVSLGTVDVLKQHINPNKTSDPFETMLKSLLRYQSGGGSVSENHMRKKLYENGVTDSLKSNFALLLKLSEELLDKWLSYPETQHVPLSQHMLGFAMKSVTQMVMGSTFEDDQEVIRFQKNHGTVWSEIGKGFLDGSLDKNMTRKKQYEDALMQLESVLRNIIKERKGRNFSQHIFIDSLVQGNLNDQQILEDSMIFSLASCIITAKLCTWAICFLTTSEEVQKKLYEEINQVFGNGPVTPEKIEQLRYCQHVLCETVRTAKLTPVSAQLQDIEGKIDRFIIPRETLVLYALGVVLQDPNTWPSPHKFDPDRFDDELVMKTFSSLGFSGTQECPELRFAYMVTTVLLSVLVKRLHLLSVEGQVIETKYELVTSSREEAWITVSKRY [CYP20A1]”: in the data set with HeLa Kyoto [1], the “solubility in G1/S (log2)” value was -0.178. In addition, the results for the melting temperature in the data set on HeLa Kyoto [2] (cell cycle stage: G1/S) and in the data set on HeLa Kyoto [2] (cell cycle stage: mitosis) were 54.4 °C and 55.1 °C, respectively. Further, the “solubility change mitosis (log2)” value in the data set on HeLa Kyoto [3] was -0.0969. The values for the thermal stability score with HeLa Kyoto [4] (setting [5]) and in the data set with HeLa Kyoto [4] (cell cycle stage: mitosis) were 0.229 and -1.11, respectively.
Turning to “MLDFLAENNLCGQAILRIVSCGNAIIAELLRLSEFIPAVFRLKDRADQQKYGDIIFDFSYFKGPELWESKLDAKPELQDLDEEFRENNIEIVTRFYLAFQSVHKYIVDLNRYLDDLNEGVYIQQTLETVLLNEDGKQLLCEALYLYGVMLLVIDQKIEGEVRERMLVSYYRYSAARSSADSNMDDICKLLRSTGYSSQPGAKRPSNYPESYFQRVPINESFISMVIGRLRSDDIYNQVSAYPLPEHRSTALANQAAMLYVILYFEPSILHTHQAKMREIVDKYFPDNWVISIYMGITVNLVDAWEPYKAAKTALNNTLDLSNVREQASRYATVSERVHAQVQQFLKEGYLREEMVLDNIPKLLNCLRDCNVAIRWLMLHTADSACDPNNKRLRQIKDQILTDSRYNPRILFQLLLDTAQFEFILKEMFKQMLSEKQTKWEHYKKEGSERMTELADVFSGVKPLTRVEKNENLQAWFREISKQILSLNYDDSTAAGRKTVQLIQALEEVQEFHQLESNLQVCQFLADTRKFLHQMIRTINIKEEVLITMQIVGDLSFAWQLIDSFTSIMQESIRVNPSMVTKLRATFLKLASALDLPLLRINQANSPDLLSVSQYYSGELVSYVRKVLQIIPESMFTSLLKIIKLQTHDIIEVPTRLDKDKLRDYAQLGPRYEVAKLTHAISIFTEGILMMKTTLVGIIKVDPKQLLEDGIRKELVKRVAFALHRGLIFNPRAKPSELMPKLKELGATMDGFHRSFEYIQDYVNIYGLKIWQEEVSRIINYNVEQECNNFLRTKIQDWQSMYQSTHIPIPKFTPVDESVTFIGRLCREILRITDPKMTCHIDQLNTWYDMKTHQEVTSSRLFSEIQTTLGTFGLNGLDRLLCFMIVKELQNFLSMFQKIILRDRTVQDTLKTLMNAVSPLKSIVANSNKIYFSAIAKTQKIWTAYLEAIMKVGQMQILRQQIANELNYSCRFDSKHLAAALENLNKALLADIEAHYQDPSLPYPKEDNTLLYEITAYLEAAGIHNPLNKIYITTKRLPYFPIVNFLFLIAQLPKLQYNKNLGMVCRKPTDPVDWPPLVLGLLTLLKQFHSRYTEQFLALIGQFICSTVEQCTSQKIPEIPADVVGALLFLEDYVRYTKLPRRVAEAHVPNFIFDEFRTVL [KIAA0196]”, the “solubility in G1/S (log2)” value in the data set on HeLa Kyoto [1] was -0.217. The figures for the melting temperature with HeLa Kyoto [2] (cell cycle stage: G1/S) and with HeLa Kyoto [2] (cell cycle stage: mitosis) were 50.7 °C and 50 °C, respectively. Moreover, the “solubility change mitosis (log2)” value with HeLa Kyoto [3] was -0.117. Further, the thermal stability score is 0.232 with HeLa Kyoto [4] (setting [5]) and -0.00652 with HeLa Kyoto [4] (cell cycle stage: mitosis).
On to “MLERPPALAMPMPTEGTPPPLSGTPIPVPAYFRHAEPGFSLKRPRGLSRSLPPPPPAKGSIPISRLFPPRTPGWHQLQPRRVSFRGEASETLQSPGYDPSRPESFFQQSFQRLSRLGHGSYGEVFKVRSKEDGRLYAVKRSMSPFRGPKDRARKLAEVGSHEKVGQHPCCVRLEQAWEEGGILYLQTELCGPSLQQHCEAWGASLPEAQVWGYLRDTLLALAHLHSQGLVHLDVKPANIFLGPRGRCKLGDFGLLVELGTAGAGEVQEGDPRYMAPELLQGSYGTAADVFSLGLTILEVACNMELPHGGEGWQQLRQGYLPPEFTAGLSSELRSVLVMMLEPDPKLRATAEALLALPVLRQPRAWGVLWCMAAEALSRGWALWQALLALLCWLWHGLAHPASWLQPLGPPATPPGSPPCSLLLDSSLSSNWDDDSLGPSLSPEAVLARTVGSTSTPRSRCTPRDALDLSDINSEPPRGSFPSFEPRNLLSLFEDTLDPT [PKMYT1]”, for which, in the data set on HeLa Kyoto [1], the “solubility in G1/S (log2)” value amounted to 0.406. In addition, the values for the melting temperature with HeLa Kyoto [2] (cell cycle stage: G1/S) and with HeLa Kyoto [2] (cell cycle stage: mitosis) were 48.7 °C and 49 °C, respectively. For the same sequence, the “solubility change mitosis (log2)” value in the data set on HeLa Kyoto [3] was -0.332. Also, the results for the thermal stability score with HeLa Kyoto [4] (setting [5]) and with HeLa Kyoto [4] (cell cycle stage: mitosis) were 0.535 and 0.495, respectively.
For the sequence “MLETLRERLLSVQQDFTSGLKTLSDKSREAKVKSKPRTVPFLPKYSAGLELLSRYEDTWAALHRRAKDCASAGELVDSEVVMLSAHWEKKKTSLVELQEQLQQLPALIADLESMTANLTHLEASFEEVENNLLHLEDLCGQCELERCKHMQSQQLENYKKNKRKELETFKAELDAEHAQKVLEMEHTQQMKLKERQKFFEEAFQQDMEQYLSTGYLQIAERREPIGSMSSMEVNVDMLEQMDLMDISDQEALDVFLNSGGEENTVLSPALGPESSTCQNEITLQVPNPSELRAKPPSSSSTCTDSATRDISEGGESPVVQSDEEEVQVDTALATSHTDREATPDGGEDSDS [DTNBP1]”, the “solubility in G1/S (log2)” value in the data set with HeLa Kyoto [1] was determined as 0.267. The sequence further showed a melting temperature in the data set with HeLa Kyoto [2] (cell cycle stage: G1/S) of 54.1 °C. For the same sequence, in the data set with HeLa Kyoto [3], the “solubility change mitosis (log2)” value is -0.387. For the same sequence, the thermal stability score is -0.457 with HeLa Kyoto [4] (setting [5]) and -0.463 in the data set on HeLa Kyoto [4] (cell cycle stage: mitosis).
With “MLGAWAVEGTAVALLRLLLLLLPPAIRGPGLGVAGVAGAAGAGLPESVIWAVNAGGEAHVDVHGIHFRKDPLEGRVGRASDYGMKLPILRSNPEDQILYQTERYNEETFGYEVPIKEEGDYVLVLKFAEVYFAQSQQKVFDVRLNGHVVVKDLDIFDRVGHSTAHDEIIPMSIRKGKLSVQGEVSTFTGKLYIEFVKGYYDNPKVCALYIMAGTVDDVPKLQPHPGLEKKEEEEEEEEYDEGSNLKKQTNKNRVQSGPRTPNPYASDNSSLMFPILVAFGVFIPTLFCLCRL [MLEC]”, the “solubility in G1/S (log2)” value with HeLa Kyoto [1] was -0.0175. In addition, the melting temperature in the data set with HeLa Kyoto [2] (cell cycle stage: G1/S) stood at 53.7 °C; with HeLa Kyoto [2] (cell cycle stage: mitosis), 53.6 °C. Further, in the data set with HeLa Kyoto [3], the “solubility change mitosis (log2)” value is -0.0845. The thermal stability score in the data set with HeLa Kyoto [4] (setting [5]) was 1.83; in the data set on HeLa Kyoto [4] (cell cycle stage: mitosis), 2.38.
In the case of “MLGFITRPPHRFLSLLCPGLRIPQLSVLCAQPRPRAMAISSSSCELPLVAVCQVTSTPDKQQNFKTCAELVREAARLGACLAFLPEAFDFIARDPAETLHLSEPLGGKLLEEYTQLARECGLWLSLGGFHERGQDWEQTQKIYNCHVLLNSKGAVVATYRKTHLCDVEIPGQGPMCESNSTMPGPSLESPVSTPAGKIGLAVCYDMRFPELSLALAQAGAEILTYPSAFGSITGPAHWEVLLRARAIETQCYVVAAAQCGRHHEKRASYGHSMVVDPWGTVVARCSEGPGLCLARIDLNYLRQLRRHLPVFQHRRPDLYGNLGHPLS [NIT1]”, the “solubility in G1/S (log2)” value in the data set with HeLa Kyoto [1] is 0.248. In addition, the melting temperature amounted to 54.7 °C with HeLa Kyoto [2] (cell cycle stage: G1/S) and 55.1 °C in the data set with HeLa Kyoto [2] (cell cycle stage: mitosis). Further, in the data set on HeLa Kyoto [3], the “solubility change mitosis (log2)” value is -0.133. The thermal stability score is -1.82 in the data set with HeLa Kyoto [4] (setting [5]) and -2.71 with HeLa Kyoto [4] (cell cycle stage: mitosis).
